Experimental data as given in US20240287172A1 (SCIRHOM, published 2024).

Tests used:
Assay in all cases: FACS, MEF-DKO cells, 3 µg/ml
hiR2-FL-T522V-T7 = target: T1, hiR2-FL-T522V-T7 (human, UniProt Q6PJF5 1-856)
T1 sequence: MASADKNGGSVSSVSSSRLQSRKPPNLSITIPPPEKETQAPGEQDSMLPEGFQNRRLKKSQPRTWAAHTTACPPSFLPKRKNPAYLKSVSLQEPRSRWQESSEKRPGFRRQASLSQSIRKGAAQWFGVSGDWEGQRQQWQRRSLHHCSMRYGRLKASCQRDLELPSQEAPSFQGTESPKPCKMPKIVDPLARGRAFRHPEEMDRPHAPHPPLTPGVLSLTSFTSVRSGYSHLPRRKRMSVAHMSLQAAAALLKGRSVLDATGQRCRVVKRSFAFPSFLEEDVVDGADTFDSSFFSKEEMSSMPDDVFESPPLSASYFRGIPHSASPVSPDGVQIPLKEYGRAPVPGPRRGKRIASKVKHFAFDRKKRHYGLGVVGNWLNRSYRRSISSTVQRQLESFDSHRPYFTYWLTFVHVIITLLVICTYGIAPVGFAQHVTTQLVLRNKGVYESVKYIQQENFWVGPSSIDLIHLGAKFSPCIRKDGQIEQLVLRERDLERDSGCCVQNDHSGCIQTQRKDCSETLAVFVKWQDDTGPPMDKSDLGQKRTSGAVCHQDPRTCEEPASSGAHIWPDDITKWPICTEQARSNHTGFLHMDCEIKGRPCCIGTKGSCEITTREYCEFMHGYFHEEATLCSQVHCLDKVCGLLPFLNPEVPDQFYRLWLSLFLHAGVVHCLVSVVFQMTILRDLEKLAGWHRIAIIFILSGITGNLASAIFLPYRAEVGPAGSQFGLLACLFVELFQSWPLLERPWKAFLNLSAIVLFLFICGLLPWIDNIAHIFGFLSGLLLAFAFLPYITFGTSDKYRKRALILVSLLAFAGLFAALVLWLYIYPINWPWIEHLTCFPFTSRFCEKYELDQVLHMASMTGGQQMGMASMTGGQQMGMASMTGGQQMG

hiR2-FL-F523W-T7 = target: T2, hiR2-FL-F523W-T7 (human, UniProt Q6PJF5 1-856)
T2 sequence: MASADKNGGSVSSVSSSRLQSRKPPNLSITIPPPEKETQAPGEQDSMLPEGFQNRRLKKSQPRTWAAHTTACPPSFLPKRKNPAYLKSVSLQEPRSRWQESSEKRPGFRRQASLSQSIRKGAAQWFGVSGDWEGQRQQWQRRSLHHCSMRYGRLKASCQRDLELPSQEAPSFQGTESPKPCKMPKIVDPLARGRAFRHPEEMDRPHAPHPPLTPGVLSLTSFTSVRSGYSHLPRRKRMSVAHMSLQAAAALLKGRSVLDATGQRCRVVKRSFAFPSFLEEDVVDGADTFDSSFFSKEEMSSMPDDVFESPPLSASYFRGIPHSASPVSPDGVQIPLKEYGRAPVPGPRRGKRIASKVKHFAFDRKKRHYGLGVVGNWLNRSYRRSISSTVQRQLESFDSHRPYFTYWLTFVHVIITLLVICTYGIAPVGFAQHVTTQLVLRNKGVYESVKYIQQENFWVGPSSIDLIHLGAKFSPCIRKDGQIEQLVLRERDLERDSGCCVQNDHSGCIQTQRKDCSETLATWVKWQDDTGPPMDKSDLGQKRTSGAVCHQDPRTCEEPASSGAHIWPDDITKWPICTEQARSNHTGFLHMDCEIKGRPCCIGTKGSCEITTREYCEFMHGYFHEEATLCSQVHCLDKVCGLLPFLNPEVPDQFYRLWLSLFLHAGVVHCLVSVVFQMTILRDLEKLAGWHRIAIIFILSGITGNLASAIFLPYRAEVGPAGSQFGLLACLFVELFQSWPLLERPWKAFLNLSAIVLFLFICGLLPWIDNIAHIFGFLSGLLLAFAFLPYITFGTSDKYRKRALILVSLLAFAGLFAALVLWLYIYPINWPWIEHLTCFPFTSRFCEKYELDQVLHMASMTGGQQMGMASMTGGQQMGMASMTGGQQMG

hiR2-FL-G531S-T7 = target: T3, hiR2-FL-G531S-T7 (human, UniProt Q6PJF5 1-856)
T3 sequence: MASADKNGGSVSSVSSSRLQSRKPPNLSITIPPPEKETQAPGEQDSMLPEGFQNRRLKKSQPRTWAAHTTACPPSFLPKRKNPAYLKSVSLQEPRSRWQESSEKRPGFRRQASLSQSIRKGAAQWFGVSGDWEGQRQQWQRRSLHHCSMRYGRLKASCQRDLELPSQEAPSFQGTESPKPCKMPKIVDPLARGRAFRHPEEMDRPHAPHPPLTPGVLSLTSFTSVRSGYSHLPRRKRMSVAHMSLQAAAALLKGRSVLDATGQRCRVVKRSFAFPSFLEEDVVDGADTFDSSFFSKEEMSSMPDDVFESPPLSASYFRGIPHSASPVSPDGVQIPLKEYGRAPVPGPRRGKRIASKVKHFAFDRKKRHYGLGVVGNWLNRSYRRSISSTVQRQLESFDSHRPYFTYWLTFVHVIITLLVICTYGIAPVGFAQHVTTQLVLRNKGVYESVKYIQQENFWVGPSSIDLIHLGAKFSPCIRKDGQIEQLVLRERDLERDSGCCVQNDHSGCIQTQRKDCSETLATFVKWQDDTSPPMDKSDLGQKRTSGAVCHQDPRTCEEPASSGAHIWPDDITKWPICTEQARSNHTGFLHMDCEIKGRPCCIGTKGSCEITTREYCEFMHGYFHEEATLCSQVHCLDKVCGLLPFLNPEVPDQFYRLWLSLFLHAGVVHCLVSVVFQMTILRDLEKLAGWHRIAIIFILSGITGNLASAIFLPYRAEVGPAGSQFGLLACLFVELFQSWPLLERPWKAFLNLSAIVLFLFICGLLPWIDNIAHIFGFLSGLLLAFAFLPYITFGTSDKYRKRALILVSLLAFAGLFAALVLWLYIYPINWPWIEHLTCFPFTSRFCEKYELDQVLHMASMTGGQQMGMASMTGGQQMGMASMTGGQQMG

Measured: loss of binding vs wild type

B1: antibody 48 (antibody, V domains shown)
VH: QVQLQQSGTELVRPGTSVKVSCKASGYAFTNYLIEWVKQRPGQGLEWIGVINPGSGFTKYNEKFKGKATLTADKSSSTVYMHLSSLTSEDSAVYFCARGLYRAMDYWGQGTSVTVSS
VL: DIQMTQSPASQSASLGESVTITCLASQTIATWLAWYQQKPGKSPQLLIYGATTLADGVPSRFSGGGSGTKFSFKISSLQAEDFVSYYCQQLYSTPYTFGGGTKLEIK
notes: mouse IgG, kappa light chain; also called clone #48; purified antibody 48
≥ 30%: all assays above

B2: antibody 50 (antibody, V domains shown)
VH: QVQLQQSGAELVRPGASVKVSCKASGYAFSNYLIEWVKQRPGQGLEWIGVINPGSGFTKYNEKFKGKATLTADKSSSTAYMQLSSLTSEDSAVYFCARGLYRAMDYWGQGTSVTVSS
VL: DIQMTQSPASQSASLGESVTITCLASQTIGTWLAWYQQKPGKSPQLLIYAAASLADGVPSRFSGGGSGTKFSFKISSLQAEDFVNYYCQQIYSTPYTFGGGTKLEIK
notes: mouse IgG, kappa light chain; also called clone #50; purified antibody 50
≥ 30%: all assays above
